Test results: PMC6307885, “Spatiotemporal control of axillary meristem formation by interacting transcriptional regulators” (Development (Cambridge, England), 2018)
One block for each binder: values may come before it.

How the values were obtained:
[1] = target: T1, BD-REV (full-length REV fused to the binding domain of GAL4) (Arabidopsis thaliana, UniProt Q9SE43 1-842); test: cell-based or functional assay
T1 sequence (looked up): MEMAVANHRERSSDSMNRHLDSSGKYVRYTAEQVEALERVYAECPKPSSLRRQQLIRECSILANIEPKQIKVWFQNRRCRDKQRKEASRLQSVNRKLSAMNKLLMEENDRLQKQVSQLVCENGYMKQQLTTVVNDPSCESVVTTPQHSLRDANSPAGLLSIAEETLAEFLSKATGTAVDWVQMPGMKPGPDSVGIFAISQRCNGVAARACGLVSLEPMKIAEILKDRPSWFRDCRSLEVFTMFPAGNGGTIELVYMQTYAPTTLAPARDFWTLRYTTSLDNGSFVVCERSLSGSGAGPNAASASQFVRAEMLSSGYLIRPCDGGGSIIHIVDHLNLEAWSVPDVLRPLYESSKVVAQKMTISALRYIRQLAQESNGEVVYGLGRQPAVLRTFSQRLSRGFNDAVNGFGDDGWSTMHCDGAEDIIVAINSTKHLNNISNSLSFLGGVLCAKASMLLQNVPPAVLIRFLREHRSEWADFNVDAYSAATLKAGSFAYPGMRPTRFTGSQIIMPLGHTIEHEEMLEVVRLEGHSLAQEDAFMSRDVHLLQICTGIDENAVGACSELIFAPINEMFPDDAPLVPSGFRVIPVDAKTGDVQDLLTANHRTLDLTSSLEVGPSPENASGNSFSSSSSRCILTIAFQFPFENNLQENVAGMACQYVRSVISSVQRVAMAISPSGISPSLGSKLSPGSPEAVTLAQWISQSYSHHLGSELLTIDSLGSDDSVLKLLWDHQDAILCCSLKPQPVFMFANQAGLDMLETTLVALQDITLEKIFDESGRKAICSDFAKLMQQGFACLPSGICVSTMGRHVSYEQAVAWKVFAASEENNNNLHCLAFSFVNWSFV

[2] = target: T2, DRN-GFP (DORNRÖSCHEN fused to GFP, from pDRN::DRN-GFP plants) (Arabidopsis thaliana, UniProt Q9SAD4 1-328); test: co-IP; anti-GFP on Protein A sepharose beads, blot probed with anti-MYC; extracts of young (younger than P10) and mature (older than P10) leaf axil-enriched tissues of pDRN::DRN-GFP p35S::REV-MYC plants, equal amounts of DRN-GFP; 20 mM HEPES pH 7.5, 40 mM KCl, 1 mM EDTA, 1% Triton X-100; details: partners not purified
T2 construct: DORNRÖSCHEN (DRN/ESR1), AP2 family transcription factor, Arabidopsis thaliana, At1g12980; Cole et al., 2009; also called ESR1; ENHANCER OF SHOOT …ON 1; source: Arabidopsis pDRN::DRN-GFP p35S::REV-MYC plants, extract of leaf axil-enriched shoot tissues
T2 sequence (Q9SAD4 whole entry, the tested form may be a part): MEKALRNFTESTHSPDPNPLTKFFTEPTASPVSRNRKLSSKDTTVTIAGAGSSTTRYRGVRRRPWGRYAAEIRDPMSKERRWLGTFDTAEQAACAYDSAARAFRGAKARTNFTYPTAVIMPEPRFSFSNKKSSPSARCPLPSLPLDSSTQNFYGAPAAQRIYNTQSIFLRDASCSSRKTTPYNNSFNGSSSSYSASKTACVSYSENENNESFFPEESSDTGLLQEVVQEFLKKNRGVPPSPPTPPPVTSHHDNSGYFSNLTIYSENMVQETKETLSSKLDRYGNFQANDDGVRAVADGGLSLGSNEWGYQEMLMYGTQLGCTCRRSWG

pSTM::Luc reporter (LUC/GUS) in Arabidopsis protoplasts; co-transformation of p35S::DRN and p35S::REV against transformation with one alone [1]: ~2.5 fold
B1: AD-DRN (full-length DRN fused to the activation domain of GAL4) (natural protein)
chain: not shown

fold stronger co-precipitated REV-MYC band, old against young leaf axil-enriched tissues [2]: ~3 fold
B2: REV-MYC (REVOLUTA with MYC tag, from p35S::REV-MYC plants) (natural protein, Arabidopsis thaliana, UniProt Q9SE43 1-842, looked up)
chain: T1 sequence (looked up)
notes: REVOLUTA (REV), class III homeodomain-leucine zipper transcription factor, Arabidopsis thaliana, At5g60690; source: Arabidopsis pDRN::DRN-GFP p35S::REV-MYC plants, extract of leaf axil-enriched shoot tissues

pSTM::Luc reporter (LUC/GUS) in Arabidopsis protoplasts; co-transformation of p35S::DRNL and p35S::REV against transformation with one alone [1]: ~2.5 fold
B3: AD-DRNL (full-length DRNL fused to the activation domain of GAL4) (natural protein)
chain: not shown
